Laboratory results reported in paper PMC8980812, “Regulation of the activity of the bacterial histidine kinase PleC by the scaffolding protein PodJ” (The Journal of Biological Chemistry, 2022).

Tests used:
PleC PAS AB-HK = target: T1, PleC PAS AB-HK (Caulobacter crescentus); test: cell-based or functional assay
T1 sequence (P37894 whole entry, looked up): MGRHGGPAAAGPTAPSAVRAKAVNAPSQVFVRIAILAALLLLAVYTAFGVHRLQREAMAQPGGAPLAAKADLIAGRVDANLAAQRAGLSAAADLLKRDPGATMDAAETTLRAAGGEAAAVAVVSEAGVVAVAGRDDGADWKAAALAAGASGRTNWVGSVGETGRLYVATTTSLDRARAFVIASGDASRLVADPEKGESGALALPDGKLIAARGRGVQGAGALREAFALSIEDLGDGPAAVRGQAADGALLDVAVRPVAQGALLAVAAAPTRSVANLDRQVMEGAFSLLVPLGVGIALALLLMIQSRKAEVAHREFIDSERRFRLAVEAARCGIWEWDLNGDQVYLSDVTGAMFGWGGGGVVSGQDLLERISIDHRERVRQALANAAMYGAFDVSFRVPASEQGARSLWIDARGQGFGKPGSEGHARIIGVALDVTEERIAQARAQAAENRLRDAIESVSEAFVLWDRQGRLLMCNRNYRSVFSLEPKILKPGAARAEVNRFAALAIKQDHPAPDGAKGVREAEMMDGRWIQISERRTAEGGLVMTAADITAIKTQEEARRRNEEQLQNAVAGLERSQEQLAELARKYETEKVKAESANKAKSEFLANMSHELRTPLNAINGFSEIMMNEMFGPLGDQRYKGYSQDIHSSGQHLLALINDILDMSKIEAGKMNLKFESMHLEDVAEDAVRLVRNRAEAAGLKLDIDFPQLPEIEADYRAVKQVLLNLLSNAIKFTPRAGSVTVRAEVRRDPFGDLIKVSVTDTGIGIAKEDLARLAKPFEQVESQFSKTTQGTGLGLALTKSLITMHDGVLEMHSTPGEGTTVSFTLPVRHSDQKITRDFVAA

[1] = target: the molecule itself; test: SEC; 3.2 mg/ml His-PodJ(1–635), Superdex 200 10/300 GL, 50 mM Tris-HCl pH 8.0, 300 mM KCl

IC50 of the repression of the ADP production rate of 7.5 μM PleC PAS AB-HK with 1000 μM ATP (coupled enzyme assay), PodJ(1–635) 0-7.5 μM (PleC PAS AB-HK): 1.86 µM
B1: His-PodJ(1–635) (domain or fragment, Caulobacter crescentus, UniProt Q9ZG88 1-635, looked up)
chain: MTAASPWSVKGIDPKAREVAKDLARRSGMTLGEWLNRMIIEGDGQTADPRLAGDDVPNRAYLEIVKDDAPPRIEIAEHPADEVGRVALALDRLTQRIEAAEGRNAAAITGIDHSVRDALTRLGASEREQIAVAARFEGAVDELKTEQARATERLRRIESEAAGPRSAEALRALEGALGKVAGHLYEGEARTREAIATLEAKLNQQSSGDPSALVEAVVARLGERLEAAETRTSDALRELGASFQALDQRLGAVETANPATGVQEGLDSLAATLTQKMEAARLEMAAKLRESADGRFDRMERKLGEMAAHVQAAEQRSAQAIERMGREIVGVADAFNRRVHAAESRNASAIEQVGGEVARIAASVEHKLNRADSVQAQALEKLGGEIARITEKLAERIGSAERRNALAIDDVGEQVARVTERLNQRHERSSQELVDRIRQSEERTLRMLEEAREKIDSRLSEAQRKLEAAPPSPPPAQAPAPVATAQRPVPPAASPFEDNYFSQAASFSTSEDEADAFDAPPAPARSFEVAEFPAAEPEEPAFAHDDYAIADGFEPESPRYEVEPEVSDFAPAEPSRPMSTRDIIEQARAAARAAAASEGKGGKAKSAKKEKASKASGSLFSGFGGFSTKKSKARL
notes: PodJ, Caulobacter crescentus, cytoplasmic domains without the transmembrane tether, residues 1–635; also called cytoplasmic portion of PodJ; source: E. coli Rosetta (DE3), plasmid pwz091, purified (HisTrap HP)
binding result [1]: binds
